Reference: the supplement of paper PMC11246515
± gives the standard deviation of the averaged measurements.

Assay: total protein half-life in vivo (active degradation + dilution); higher = more stable protein
[1] = E. coli NCM3722 delta-smpB, growth: N-lim chemostat, doubling time 6 h
[2] = wild type E. coli NCM3722, growth: C-lim chemostat, doubling time 3 h
[3] = wild type E. coli NCM3722, growth: C-lim chemostat, doubling time 6 h
[4] = wild type E. coli NCM3722, growth: C-lim chemostat, doubling time 12 h
[5] = wild type E. coli NCM3722, growth: P-lim chemostat, doubling time 12 h
[6] = E. coli NCM3722 delta-clpP delta-lon delta-hslV, growth: N-lim chemostat, doubling time 6 h
[7] = E. coli NCM3722 delta-clpP, growth: N-lim chemostat, doubling time 6 h
[8] = E. coli NCM3722 delta-lon, growth: N-lim chemostat, doubling time 6 h
[9] = wild type E. coli NCM3722, growth: N-lim chemostat, doubling time 6 h
[10] = wild type E. coli NCM3722, growth: N-lim chemostat, doubling time 12 h
[11] = wild type E. coli NCM3722, growth: P-lim chemostat, doubling time 6 h
[12] = E. coli NCM3722 delta-hslV, growth: N-lim chemostat, doubling time 6 h

MPLLHLLRQNPVIAAVKDNASLQLAIDSECQFISVLYGNICTISNIVKKIKNAGKYAFIHVDLLEGASNKEVVIQFLKLVTEADGIISTKASMLKAARAEGFFCIHRLFIVDSISFHNIDKQVAQSNPDCIEILPGCMPKVLGWVTEKIRQPLIAGGLVCDEEDARNAINAGVVALSTTNTGVWTLAKKLL
total protein half-life in vivo [1]: 3.74 h
total protein half-life in vivo [2]: 2.77 ± 0.24 h
total protein half-life in vivo [3]: 4.77 ± 0.7 h
total protein half-life in vivo [4]: 12.1 ± 1.7 h
total protein half-life in vivo [5]: 8.94 h

MIKVLIVDDEPLARENLRVFLQEQSDIEIVGECSNAVEGIGAVHKLRPDVLFLDIQMPRISGLEMVGMLDPEHRPYIVFLTAFDEYAIKAFEEHAFDYLLKPIDEARLEKTLARLRQERSKQDVSLLPENQQALKFIPCTGHSRIYLLQMKDVAFVSSRMSGVYVTSHEGKEGFTELTLRTLESRTPLLRCHRQYLVNLAHLQEIRLEDNGQAELILRNGLTVPVSRRYLKSLKEAIGL [P0AFT5]
total protein half-life in vivo [6]: 5.88 h
total protein half-life in vivo [7]: 4.54 ± 0.31 h
total protein half-life in vivo [8]: 5.56 h
total protein half-life in vivo [1]: 3.83 h
total protein half-life in vivo [2]: 3.04 ± 0.45 h
total protein half-life in vivo [3]: 5.55 ± 0.23 h
total protein half-life in vivo [9]: 5.02 ± 0.13 h
total protein half-life in vivo [10]: 7.03 ± 0.46 h
total protein half-life in vivo [5]: 10.1 ± 0.16 h

MNQIFMVIFLVLSGFIVGNVWSDRGWQKKWAERDAAALSQEVNAQFAARIIEQGRTIARDEAVKDAQQKSAEISARAAYLSDSVNQLRAEAKKYAIRLDAAKHTADLAAAVRGKTTKTAEGMLTNMLGDIAAEAQLYAEIADERYIAGVTCQQIYESLRDKKHQM
total protein half-life in vivo [5]: 9.42 h

MQKYISEARLLLALAIPVILAQIAQTAMGFVDTVMAGGYSATDMAAVAIGTSIWLPAILFGHGLLLALTPVIAQLNGSGRRERIAHQVRQGFWLAGFVSVLIMLVLWNAGYIIRSMENIDPALADKAVGYLRALLWGAPGYLFFQVARNQCEGLAKTKPGMVMGFIGLLVNIPVNYIFIYGHFGMPELGGVGCGVATAAVYWVMFLAMVSYIKRARSMRDIRNEKGTAKPDPAVMKRLIQLGLPIALALFFEVTLFAVVALLVSPLGIVDVAGHQIALNFSSLMFVLPMSLAAAVTIRVGYRLGQGSTLDAQTAARTGLMVGVCMATLTAIFTVSLREQIALLYNDNPEVVTLAAHLMLLAAVYQISDSIQVIGSGILRGYKDTRSIFYITFTAYWVLGLPSGYILALTDLVVEPMGPAGFWIGFIIGLTSAAIMMMLRMRFLQRLPSAIILQRASR
total protein half-life in vivo [6]: 5.68 ± 0.19 h
total protein half-life in vivo [7]: 6.61 h
total protein half-life in vivo [8]: 4.97 ± 0.54 h
total protein half-life in vivo [1]: 5.45 ± 0.68 h
total protein half-life in vivo [2]: 3.6 h
total protein half-life in vivo [4]: > 16 h
total protein half-life in vivo [9]: 6.87 ± 0.42 h
total protein half-life in vivo [10]: 12 ± 0.72 h
total protein half-life in vivo [11]: 5.52 ± 0.6 h
total protein half-life in vivo [5]: 12.7 ± 0.75 h

MHLRHLFSSRLRGSLLLGSLLVVSSFSTQAAEEMLRKAVGKGAYEMAYSQQENALWLATSQSRKLDKGGVVYRLDPVTLEVTQAIHNDLKPFGATINNTTQTLWFGNTVNSAVTAIDAKTGEVKGRLVLDDRKRTEEVRPLQPRELVADDATNTVYISGIGKESVIWVVDGGNIKLKTAIQNTGKMSTGLALDSEGKRLYTTNADGELITIDTADNKILSRKKLLDDGKEHFFINISLDTARQRAFITDSKAAEVLVVDTRNGNILAKVAAPESLAVLFNPARNEAYVTHRQAGKVSVIDAKSYKVVKTFDTPTHPNSLALSADGKTLYVSVKQKSTKQQEATQPDDVIRIAL
total protein half-life in vivo [6]: 5.6 ± 0.52 h
total protein half-life in vivo [7]: 5.877 ± 0.042 h
total protein half-life in vivo [12]: 5.99 ± 0.71 h
total protein half-life in vivo [8]: 5.44 ± 0.31 h
total protein half-life in vivo [1]: 5.53 ± 0.97 h
total protein half-life in vivo [2]: 3.14 ± 0.065 h
total protein half-life in vivo [3]: 6.05 ± 0.6 h
total protein half-life in vivo [4]: 12.2 ± 1.1 h
total protein half-life in vivo [9]: 5.63 ± 0.093 h
total protein half-life in vivo [10]: 11.5 ± 1.1 h
total protein half-life in vivo [11]: 5.44 ± 0.17 h
total protein half-life in vivo [5]: 11.4 ± 0.18 h

MALLPDKEKLLRNFLRCANWEEKYLYIIELGQRLPELRDEDRSPQNSIQGCQSQVWIVMRQNAQGIIELQGDSDAAIVKGLIAVVFILYDQMTPQDIVNFDVRPWFEKMALTQHLTPSRSQGLEAMIRAIRAKAAALS
total protein half-life in vivo [6]: 4.3 ± 0.53 h
total protein half-life in vivo [7]: 3.71 ± 0.31 h
total protein half-life in vivo [8]: 5.07 ± 1.1 h
total protein half-life in vivo [1]: 4.012 ± 0.015 h
total protein half-life in vivo [2]: 3.39 h
total protein half-life in vivo [3]: 4.57 ± 0.48 h
total protein half-life in vivo [4]: 9.46 ± 0.25 h
total protein half-life in vivo [9]: 3.509 ± 0.018 h
total protein half-life in vivo [10]: 5.75 ± 0.11 h
total protein half-life in vivo [11]: 4.85 ± 0.13 h
total protein half-life in vivo [5]: 10.1 ± 1.2 h

MAVQKNVIKGILAGTFALMLSGCVTVPDAIKGSSPTPQQDLVRVMSAPQLYVGQEARFGGKVVAVQNQQGKTRLEIATVPLDSGARPTLGEPSRGRIYADVNGFLDPVDFRGQLVTVVGPITGAVDGKIGNTPYKFMVMQVTGYKRWHLTQQVIMPPQPIDPWFYGGRGWPYGYGGWGWYNPGPARVQTVVTE [P0AA91]
total protein half-life in vivo [6]: 6.07 ± 0.61 h
total protein half-life in vivo [7]: 6.3 ± 0.12 h
total protein half-life in vivo [12]: 6.13 ± 0.12 h
total protein half-life in vivo [8]: 6.532 ± 0.04 h
total protein half-life in vivo [1]: 5.76 ± 0.071 h
total protein half-life in vivo [2]: 3.01 ± 0.17 h
total protein half-life in vivo [3]: 6.05 ± 0.21 h
total protein half-life in vivo [4]: 10.7 ± 2.4 h
total protein half-life in vivo [9]: 6.52 ± 0.45 h
total protein half-life in vivo [10]: 13.7 ± 1.7 h
total protein half-life in vivo [11]: 6.13 ± 0.1 h

MNNSAFTFQTLHPDTIMDALFEHGIRVDSGLTPLNSYENRVYQFQDEDRRRFVVKFYRPERWTADQILEEHQFALQLVNDEVPVAAPVAFNGQTLLNHQGFYFAVFPSVGGRQFEADNIDQMEAVGRYLGRMHQTGRKQLFIHRPTIGLNEYLIEPRKLFEDATLIPSGLKAAFLKATDELIAAVTAHWREDFTVLRLHGDCHAGNILWRDGPMFVDLDDARNGPAVQDLWMLLNGDKAEQRMQLETIIEAYEEFSEFDTAEIGLIEPLRAMRLVYYLAWLMRRWADPAFPKNFPWLTGEDYWLRQTATFIEQAKVLQEPPLQLTPMY [P0C0K3]
total protein half-life in vivo [6]: 3.88 ± 0.5 h
total protein half-life in vivo [7]: 5.41 ± 1.8 h
total protein half-life in vivo [12]: 4.37 ± 0.62 h
total protein half-life in vivo [8]: 4.43 ± 0.29 h
total protein half-life in vivo [1]: 4.22 ± 0.26 h
total protein half-life in vivo [2]: 2.99 ± 0.046 h
total protein half-life in vivo [3]: 5.38 ± 0.61 h
total protein half-life in vivo [4]: 10.3 ± 1.3 h
total protein half-life in vivo [9]: 4.23 ± 0.21 h
total protein half-life in vivo [10]: 6.67 ± 0.66 h
total protein half-life in vivo [11]: 6.02 ± 0.38 h
total protein half-life in vivo [5]: 10.3 ± 0.64 h
